The source of these data is patent publication US20120213781A1.

Bridges are numbered along the chain shown (N, C = ends). Where no end group is shown, it is not given here.

The target of the assay is recombinant human angiopoietin-2 (rhAng2) (human) (UniProt O15123). The assay is described as follows: direct ELISA on rhAng2-coated wells, detection by HRP-anti-His tag antibody, OD450.
Sequence of UniProt O15123 (O15123 19-496 limits assumed): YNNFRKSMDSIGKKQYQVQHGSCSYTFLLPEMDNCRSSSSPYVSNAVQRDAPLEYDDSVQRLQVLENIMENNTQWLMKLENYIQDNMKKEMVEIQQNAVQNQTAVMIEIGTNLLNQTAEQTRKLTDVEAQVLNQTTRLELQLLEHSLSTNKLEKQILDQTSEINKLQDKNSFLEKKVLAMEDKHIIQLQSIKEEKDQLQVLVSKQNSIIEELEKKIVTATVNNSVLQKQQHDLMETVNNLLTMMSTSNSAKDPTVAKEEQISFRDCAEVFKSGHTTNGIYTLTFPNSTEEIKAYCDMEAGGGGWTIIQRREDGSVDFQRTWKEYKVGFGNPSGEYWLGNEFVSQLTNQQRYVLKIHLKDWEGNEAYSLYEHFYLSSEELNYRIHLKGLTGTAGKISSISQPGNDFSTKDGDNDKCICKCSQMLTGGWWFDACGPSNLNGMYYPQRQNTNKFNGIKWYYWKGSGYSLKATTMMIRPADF

B1: Construct 13 (designed binder, not shown: small tags and cut ends)
chain: LWDDCYSFPNPPHCYNSP
modifications: disulfide 5-14 (inferred); not fully specified (N-terminus, C-terminus); also: ELP-MRD fusion, type and number of ELP repeats not given here
With B1, the EC50 (read off the curve) was 9 nM.

B2: Construct 12 (designed binder, not shown: small tags and cut ends)
chain: LWDDCYSFPNPPHCYNSP
modifications: disulfide 5-14 (inferred); not fully specified (N-terminus, C-terminus); also: ELP-MRD fusion, type and number of ELP repeats not given here
On to B2, for which the EC50 (read off the curve) was determined as 9 nM.
